experiment: soluble on expression in E. coli; label from the status in PepcDB or PDB records

Sequence	soluble on expression in E. coli
MASDGVVVEIGKVTGSVGTTVEIPVYFRGVPSKGIANCDFVFRYDPNVLEIIGIDPGDIIVDPNPTKSFDTAIYPDRKIIVFLFAEDSGTGAYAITKDGVFAKIRATVKSSAPGYITFDEVGGFADNDLVEQKVSFIDGGVNVGNATPTKGATPTNTATPTK	soluble
VFCAGHGVYWVAYDAGNLIKNGENTVEILTSTGEPGKKMDGRIYGTVLAAACENPKAPMVSYQLLTGNINLHGEGWSENIKEVNDRAEVNFSAGQALNNIDSANLSVVYLTGSKGLPDYIEFNGEIPGVPPQYLVEKCGENVRDIANEVSFDSSGDKGAASSYFDMEHIDVLNYLKADNSAVFVRGFDINGDGKIDDQEGEDYLHPVLAALVLTSKNTESVFPDLYPEIRVSEEELIDGKPVEISLTINNPGGICEENCTAVFLVDGNEISRVPIQMGAAGIHRSGILWSGIKGEHRLELFLD	not soluble
MHRALNQDDDHNQDGQDLLEAVLARDNLARAWRRVKSNRGAPGIDGVTTAEWPEHARAHWPATREQIEAGRYRPQPVRRVDIPKPDGGQRQLGIPTVTDRVIQQAIAQVLIPIFDPGFSASSFGFRPGRNAHQAIRQVQAHVKAGYRWAVDLDLARFFDNVNHDLLMSLLSRSIADKRLLALIGRYLRAGVLVGEHPQPSEVGTPQGGPLSPLLANVLLHQFDLELERRGHRFARYADDVIILVKSRRAAERVMQSLTYFLQSTLKLTVNLAKSQVAPMSECSFLGFTLVGKKIRWTEKSLANFKHRVRQLTGRSWGVSMEYRLEKLGQYLRGWFGYYGISQYYRPIPELDEWIRRRVRMCYWKQWRWARTKIRHLLDLGIPLKAAIQHGVSSLSYWRMARTPVTQQAMSNDWLRAQGLLSIKDLWCKAQSYGPDKGLEHHHHHH	not soluble
MGSDKIHHHHHHMVNNVDVYYEGWGERWQWGRLASSTALTGRPLIMFEYSEEAIRRGLELSSLRLPLNGPRLSRGFPSYQLGLPGPVYDALPDGWGMLLMDRLFRLRGLNTARIGPLERLTYIGSNAMGAMSFEPSQPEASAVSEDIPLAQLSAEVQEVLDGEGGEFLQRLLQMGGSPQGARPKALLYCDPDTKTLTTSAASGLDAWLFKFPAKQEHPEVCAIEAVYAQCLRECHIHTPDTEYIELPNGQAAFASRRFDRQNGLRIPMQSLAAFTEANYQSPGSLDYANFLRATQICTNDVREKVLAFERVVFNVIFNNRDDHTKNFAYIMSSSGQWKLAPAYDVTYCEGPGGYHQMDVMGEALEISRELIHRLGVQEADLTSSQVDIIIEQYGEVAASFAKRAAGMFPGCITQDTLRTIQDRINDNIRCLQKR	not soluble
PKTVQDLTSVVQTLLQQMQDKFQTISDQIIGRIDDMSSRIDDLEKNIA	soluble
MGSDKIHHHHHHMIHSETFAEIATLKERNLIALKEAREAGRHAVGTYCLFSPTELILAAGAIPVSLCGTSQKPIPAAEKVLPRNLCPLIKSSYGFAVTDTCPYFHFADFLLAETTCDGKKKMYELLGELKPIHVMQLPQIQDEAALDYWLMEIGRLKTRLEREFGVRITDKALTEAIRLMNEERRSLQALQDVCKAIPSPISGLDLLTVLHNRGFSVDRRAAIELVDRFAAELRQMAAAGISPFTESTPRILLTGVPVGVGSEKLIRIIEESGASVVCLESCGAYKKVEQVREGGDPLRAIAERYLKVPCSCMSPNTGRLELVERLTREFRVDGVVDLTWLGCHTYAVESSVLKKHLQQRTGLPFLQIETDYSESDTGQLKVRVEAFLEIVHRSMKRTA	not soluble
MGSDKIHHHHHHMVQLIKKYEDLLCLLDELIKNESTFRWDEFYLERERDVPFFVLAPDEQLVEYVCTGLIESGKVLELGCGPGRNAIYLAENHFEVDVVDLSQKAIDWAMDRANERKASIRFIRENIFNLNVNKASYDLVYDSGCFHHIPPHRRMDYIHLVTTALKPGGHFGLTCFIENGPLGGAAISDLDVYRQQSLQGGLGFTEQKLIQIFDDFAVIEIRKMKEYPNDSSRFGVNGLLTALFQKKKVEKVK	not soluble
MRVFVVGGTGFVGQEVVRLLLARGHTPLVLARRSRPLPEGAVLVEGDIAREVPDLEGVEAAIYLAGIIRERGQTFRAVHVEGVRNLLRAMERAGVGRLLHMSALGARPEAPSRYHRTKAEGEALVRQSGLSHAIFRPSLIFGPGDEFFGRVLRGLVCAPLPFVPLIGDGGFPFRPVYVGDVAEAFVGALERGLEGTYDLVGPKEYSFRELLQLVMEVLGRRKPFLSLPLWLMDRLVPLLSPLPISPLTLDQYLMLKEGNTAPFPEALKELLPAPQALEEVLPRYLRC	soluble

Reference: the DeepSol protein solubility set
